Test results published in US9017951B2, “Anti-FcRH5 antibodies and immunoconjugates and methods of use” (Genentech, Inc., priority 2009, dated 2015).

T1: human FcRH5 (Homo sapiens, UniProt Q96RD9)
T1 construct: expressed in transfected cells; host or cells: OPM2 multiple myeloma line per text
T1 sequence (Q96RD9 16-977 Y267H/G418D/V466I/L733P/S890P): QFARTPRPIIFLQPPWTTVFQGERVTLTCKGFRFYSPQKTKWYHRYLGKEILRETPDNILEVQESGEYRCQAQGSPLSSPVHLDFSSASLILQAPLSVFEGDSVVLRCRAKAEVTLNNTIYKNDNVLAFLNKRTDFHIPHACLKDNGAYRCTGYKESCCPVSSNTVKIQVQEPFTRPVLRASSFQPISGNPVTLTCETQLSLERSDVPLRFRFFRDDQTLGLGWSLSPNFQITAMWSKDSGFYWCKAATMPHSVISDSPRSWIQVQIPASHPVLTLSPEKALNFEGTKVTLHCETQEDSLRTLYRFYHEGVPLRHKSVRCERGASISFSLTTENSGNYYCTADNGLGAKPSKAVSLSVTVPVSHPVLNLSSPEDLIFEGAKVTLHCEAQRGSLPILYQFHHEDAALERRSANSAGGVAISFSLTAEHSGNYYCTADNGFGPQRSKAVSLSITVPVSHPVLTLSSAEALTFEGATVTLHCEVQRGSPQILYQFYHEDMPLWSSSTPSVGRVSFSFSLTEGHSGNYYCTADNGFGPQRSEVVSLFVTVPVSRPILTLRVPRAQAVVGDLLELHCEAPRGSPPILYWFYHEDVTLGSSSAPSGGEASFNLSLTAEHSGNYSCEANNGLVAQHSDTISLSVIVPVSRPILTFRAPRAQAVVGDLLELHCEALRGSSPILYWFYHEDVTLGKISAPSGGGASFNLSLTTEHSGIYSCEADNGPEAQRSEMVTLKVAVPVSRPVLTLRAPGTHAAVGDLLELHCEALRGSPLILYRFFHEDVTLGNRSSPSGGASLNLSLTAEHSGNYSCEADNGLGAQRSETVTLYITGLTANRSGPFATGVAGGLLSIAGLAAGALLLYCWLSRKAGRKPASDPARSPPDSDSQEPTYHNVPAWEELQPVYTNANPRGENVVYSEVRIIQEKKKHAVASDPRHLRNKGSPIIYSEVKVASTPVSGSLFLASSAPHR

B1: hu13G9.1a: humanized 13G9 version 1; VL SEQ ID NO: 19, VH SEQ ID NO: 21 (antibody, V domains shown)
VH: EVQLVQSGGGLVQPGGSLRLSCAASGYTFTNYGMNWVRQAPGKGLEWVGWVNTYTGEPTYTDDFKGRFTFSVDTSKSTVYLQMNSLRAEDTAVYYCARRSIPYYYAMDYWGQGTLVTVS
VL: DIQMTQSPSSLSASVGDRVTITCKASQNVGSNVAWYQQKPGKAPKALIYSASYRYSGVPSRFSGSGSGTDFTLTISSLQPEDFATYYCQQYKTWTFGQGTKVEIKR
B2: 13G9: murine monoclonal antibody binding human FcRH5; variable chains SEQ ID NO: 18 and 20 (antibody, listed as Mus sp., V domains shown)
VL: DIVMTQSQKIMSTSVGDRVNVTCKASQNVGSNVAWYHQKPGQSPKALIYSASYRYSGVPDRFTGSGSGTDFTLTISNVQSEDLAEYFCQQYKTWTFGGGTKLEIKR
VH: EVQLVQSGPELKKPGETVKISCKASGYTFTNYGMNWVKQAPGKGLKWMGWVNTYTGEPTYTDDFKGRFAFSVETSASTVFLQINNLKNEDTATYFCARRSIPYYYAMDYWGQGTSLT

Experiments:
human FcRH5 = target: T1, human FcRH5; experiment: Affinity determination (Scatchard analysis), cells expressing human FcRH5; type: binding; settings: FACS and Scatchard analysis
Method: To further determine binding of the FcRH5 murine antibodies and IgG clones, binding of iodinated IgG variants to OPM2 cells expressing human FcRH5 and SVT2 cells expressing cynomologous FcRH5, Scatchard analysis was performed (Table 9A).
After a four hour incubation at 4° C., cells were washed and cell pellet counts were read by a gamma counter (1470 WIZARD Automatic Gamma Counter; Perkin Elmer, Walthem, Mass.). All points were done in triplicate and counted for 10 minutes. The average CPM was used for Kd calculation using the New Ligand (Genentech, South San Francisco, Calif.) program.

cynomolgus FcRH5 = experiment: Cyno X-reactivity (FACS) on stable transfected cells; type: binding; settings: SVT2 cells stably expressing cynoFcRH5; 1.0, 0.1 or 0.01 ug Ab per million cells
Method: For additional FACS analysis of FcRH5 antibodies, 1.0 μg, 0.1 μg or 0.01 μg of antibody was titrated per million cells of BJAB cells stably expressing huFcRH5 and SVT2 cells stably expressing cynoFcRH5. Briefly, approximately 10^6 cells in 100 μl were incubated with varying amounts (1.0 ug, 01. ug or 0.01 ug) of murine Ab (‘mu1H4, mu4D10, mu6H1, mu7D11, mu9E2, mu10A8, mu140F5, or mu13G9) per million cells of BJAB cells stably expressing huFcRH5 and SVT2 cells stably expressing cynoFcRH5. Incubation with 1.0 ug/10^6 cells of the appropriate Mu IgG isotype control was used as a negative control. PE conjugated Rat anti-MuIgG1 or Rat anti-MuIgG2a+b was used as the secondary detection antibody.

cynomolgus FcRH5, sequence (as listed by the source): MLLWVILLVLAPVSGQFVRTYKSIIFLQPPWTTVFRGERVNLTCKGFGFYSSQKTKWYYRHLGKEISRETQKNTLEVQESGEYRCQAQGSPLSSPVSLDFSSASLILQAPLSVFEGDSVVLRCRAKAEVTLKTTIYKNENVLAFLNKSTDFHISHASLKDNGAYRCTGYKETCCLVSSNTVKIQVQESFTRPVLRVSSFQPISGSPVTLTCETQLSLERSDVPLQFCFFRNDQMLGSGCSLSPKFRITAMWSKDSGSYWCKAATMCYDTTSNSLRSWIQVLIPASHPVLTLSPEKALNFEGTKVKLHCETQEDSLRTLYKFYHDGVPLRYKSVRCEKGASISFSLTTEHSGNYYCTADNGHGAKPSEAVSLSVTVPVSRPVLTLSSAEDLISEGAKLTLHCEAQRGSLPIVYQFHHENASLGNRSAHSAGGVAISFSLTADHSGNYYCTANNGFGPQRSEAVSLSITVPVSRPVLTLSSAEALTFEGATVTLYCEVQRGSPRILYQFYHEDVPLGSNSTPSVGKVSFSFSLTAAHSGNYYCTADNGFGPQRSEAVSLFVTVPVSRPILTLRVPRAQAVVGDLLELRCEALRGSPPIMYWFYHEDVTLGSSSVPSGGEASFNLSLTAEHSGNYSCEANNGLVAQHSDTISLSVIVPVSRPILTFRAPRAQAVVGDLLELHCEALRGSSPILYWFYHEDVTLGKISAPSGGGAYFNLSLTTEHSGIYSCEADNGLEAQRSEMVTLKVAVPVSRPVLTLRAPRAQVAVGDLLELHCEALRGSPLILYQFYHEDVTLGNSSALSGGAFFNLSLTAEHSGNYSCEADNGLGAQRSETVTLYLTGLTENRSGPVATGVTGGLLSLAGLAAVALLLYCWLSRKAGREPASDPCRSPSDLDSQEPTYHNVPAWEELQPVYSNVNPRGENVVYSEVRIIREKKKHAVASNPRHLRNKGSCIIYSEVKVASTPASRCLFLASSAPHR

Row | Molecule | Binding to cells expressing FcRH5 compared with the chimera (human FcRH5) | Cross reactivity with cynomolgus FcRH5 by FACS analysis (cynomolgus FcRH5)
1 | B1 | essentially equivalent to the chimera | 
2 | B2 |  | cross react with cynomolgus FcRH5
